Where no end group is shown, it is not given here.
Assays:
[1] = molecular target: T1, human CDH17-mGFP fusion protein overexpressed on HEK293T cells (clone G11) (human, UniProt Q12864 23-832); experiment: KinExA, cell-based, HEK293T overexpressing human CDH17-mGFP (FIG. 16)
T1 construct: also called HEK293T CDH17mGFP Clone G11; HEK293T Human CDH17mGFP G11; not shown: mGFP fluorescent protein fused to CDH17
Method: (§1) The cell-based antibody affinity (KD) of the anti-CDH17 antibodies was measured by KinExA 4000 (Sapidyne Instrument, Boise, Idaho). Briefly, HEK293T overexpressing CDH17-fluorescent protein fusion (i.e., human CDH17-mGFP, monkey CDH17-mGFP, mouse CDH17-mGFP or rat CDH17-mGFP) were detached with Versene and equilibrated with either 50 pM, 200 pM, 20 nM, or 50 nM antibody in 2% FBS/DMEM at 4° C. overnight. The cell concentration started at 5×10⁶ cells/mL or 1×10⁷ cells/mL and 2-fold serial dilutions were performed up to 10 points. The next day, the cells were centrifuged at 1500 rpm for 10 min and the supernatants were saved. […] In contrast, while the humanized anti-CDH17 antibody, 07-0653-h43, fails to bind mouse CDH17 protein, it binds rat CDH17 protein equally well as to human and monkey CDH17 protein such that its Kp is less than about 1 nM for human, monkey and rat CDH17 proteins with overlapping 95% confidence interval values.

[2] = molecular target: T2, human cadherin-17 (CDH17), endogenously expressed on human cancer cell lines (LS513, SNU-C1, PaTu8988s, … (human, UniProt Q12864 23-832)); experiment: flow cytometry (iQue) on PATU8988S cells, 0.2 µg Ab
T2 construct: also called LS513 (Colon, CDH17+); HPAF2

[3] = molecular target: T1, human CDH17-mGFP fusion protein …; experiment: flow cytometry (iQue) on HEK293T CDH17 mGFP clone G11 (human), 0.2 µg Ab
[4] = molecular target: T3, rat CDH17 fused to moxGFP, overexpressed on HEK293T cells (rat, UniProt P55281 22-827); experiment: flow cytometry (BD C6) on HEK293T Rat CDH17 moxGFP cells
T3 construct: whole, on cells; also called HEK293T Rat CDH17mGFP mass pop; rat CDH17-moxGFP
Method: (§2) To determine relative antigen binding strengths of the humanized antibodies, FACS assays were carried out as essentially described in Example 1. […] Using a BD Biosciences Accuri™ C6 Flow Cytometer (San Jose, CA), antibody binding based on Alexa Fluor® 647 fluorescence was measured in the FL4-H channel and fusion protein overexpression based on GFP fluorescence was measured in the FL1-H channel.

[5] = molecular target: T4, biotinylated 15-mer peptide 18 of the CDH17 ECD peptide scan (human, also: biotin label, position not given here); experiment: titration ELISA on biotinylated peptide captured on streptavidin plates
T4 peptide: THNLQVAALDANGII
Method: (§3) For the ELISA, 1 μl of each biotinylated peptide plus 99 μl of peptide coating buffer (40% DMSO and 0.05% Tween20 in PBS) was added to a streptavidin-coated microtiter plate well. The plate was incubated overnight at 4° C. without shaking. The plate was then washed 4 times with 300 μl washing buffer (PBS with 0.05% Tween20). 200 μl blocking buffer (PBS with 400 μM biotin and 20% sucrose) was added to each well and the plate incubated for 30 min at room temperature without shaking. After 3 times washing with washing buffer, 300 μl of SuperBlock T20 (TBS) Blocking Buffer (Thermo Scientific, #37536) was applied per well and incubated at room temperature for 1 hour. […]

[6] = molecular target: T5, biotinylated 15-mer peptide 20 of the CDH17 ECD peptide scan (human, also: biotin label, position not given here); experiment: as above
T5 peptide: LDANGIIVEGPVPIT
Method: as §3

[7] = molecular target: T6, biotinylated 15-mer peptide 19 of the CDH17 ECD peptide scan (human, also: biotin label, position not given here); experiment: as above
T6 peptide: QVAALDANGIIVEGP
Method: as §3

[8] = molecular target: T7, mouse CDH17-mGFP fusion protein overexpressed on HEK293T cells (mouse, UniProt Q9R100 26-827); experiment: flow cytometry on HEK293T mouse CDH17mGFP mass population, 20 µg/ml
T7 construct: also called HEK293T Mouse CDH17mGFP mass; not shown: mGFP fluorescent protein

[9] = molecular target: T7, mouse CDH17-mGFP fusion protein …; experiment: flow cytometry (BD C6) on HEK293T Mouse CDH17 mGFP cells
Method: as §2

[10] = molecular target: T1, human CDH17-mGFP fusion protein …; experiment: flow cytometry on HEK293T human CDH17mGFP G11, 20 µg/ml
[11] = molecular target: T1, human CDH17-mGFP fusion protein …; experiment: flow cytometry (iQue) on HEK293T CDH17 mGFP clone G11 (human), 1 µg Ab
Peptide 7 = molecular target: T8, Peptide 7 (also: biotin label, position not given here); experiment: titration ELISA, antibody 1500 to 0.157 ng/ml, biotinylated peptide on streptavidin-coated plate
T8 construct: LDANGII with the seventh residue I changed to A; also called LDANGIA
T8 peptide: LDANGIA

[12] = molecular target: T1, human CDH17-mGFP fusion protein …; experiment: KinExA, cell-based, HEK293T human CDH17mGFP G11 (same value as r12)
Method: as §1

[13] = molecular target: T2, human cadherin-17 (CDH17), endogenously …; experiment: flow cytometry (iQue) on LS513 cells, 1 µg Ab
[14] = molecular target: T2, human cadherin-17 (CDH17), endogenously …; experiment: flow cytometry (iQue) on LS513 cells, 0.2 µg Ab

T7 sequence (Q9R100 26-827): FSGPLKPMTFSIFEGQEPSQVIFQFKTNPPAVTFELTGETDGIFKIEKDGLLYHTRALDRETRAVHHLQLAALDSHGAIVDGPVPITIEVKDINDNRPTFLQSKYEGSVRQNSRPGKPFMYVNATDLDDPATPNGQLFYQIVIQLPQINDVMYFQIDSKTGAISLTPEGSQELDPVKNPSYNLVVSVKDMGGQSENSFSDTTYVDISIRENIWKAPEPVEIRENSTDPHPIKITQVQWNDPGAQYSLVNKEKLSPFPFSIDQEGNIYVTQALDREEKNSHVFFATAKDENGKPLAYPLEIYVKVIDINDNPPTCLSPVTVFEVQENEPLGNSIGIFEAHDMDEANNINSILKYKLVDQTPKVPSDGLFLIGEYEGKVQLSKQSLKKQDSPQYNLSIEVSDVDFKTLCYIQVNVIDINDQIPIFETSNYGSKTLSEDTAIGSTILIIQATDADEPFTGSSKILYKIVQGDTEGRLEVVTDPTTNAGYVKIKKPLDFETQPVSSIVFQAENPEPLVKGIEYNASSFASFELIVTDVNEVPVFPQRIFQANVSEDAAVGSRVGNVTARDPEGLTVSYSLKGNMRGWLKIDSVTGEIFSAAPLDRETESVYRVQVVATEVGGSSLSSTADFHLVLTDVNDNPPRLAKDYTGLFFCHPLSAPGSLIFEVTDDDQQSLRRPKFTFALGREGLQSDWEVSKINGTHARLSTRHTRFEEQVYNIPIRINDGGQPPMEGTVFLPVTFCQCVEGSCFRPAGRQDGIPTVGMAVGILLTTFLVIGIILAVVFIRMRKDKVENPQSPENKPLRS
T3 sequence (P55281 22-827): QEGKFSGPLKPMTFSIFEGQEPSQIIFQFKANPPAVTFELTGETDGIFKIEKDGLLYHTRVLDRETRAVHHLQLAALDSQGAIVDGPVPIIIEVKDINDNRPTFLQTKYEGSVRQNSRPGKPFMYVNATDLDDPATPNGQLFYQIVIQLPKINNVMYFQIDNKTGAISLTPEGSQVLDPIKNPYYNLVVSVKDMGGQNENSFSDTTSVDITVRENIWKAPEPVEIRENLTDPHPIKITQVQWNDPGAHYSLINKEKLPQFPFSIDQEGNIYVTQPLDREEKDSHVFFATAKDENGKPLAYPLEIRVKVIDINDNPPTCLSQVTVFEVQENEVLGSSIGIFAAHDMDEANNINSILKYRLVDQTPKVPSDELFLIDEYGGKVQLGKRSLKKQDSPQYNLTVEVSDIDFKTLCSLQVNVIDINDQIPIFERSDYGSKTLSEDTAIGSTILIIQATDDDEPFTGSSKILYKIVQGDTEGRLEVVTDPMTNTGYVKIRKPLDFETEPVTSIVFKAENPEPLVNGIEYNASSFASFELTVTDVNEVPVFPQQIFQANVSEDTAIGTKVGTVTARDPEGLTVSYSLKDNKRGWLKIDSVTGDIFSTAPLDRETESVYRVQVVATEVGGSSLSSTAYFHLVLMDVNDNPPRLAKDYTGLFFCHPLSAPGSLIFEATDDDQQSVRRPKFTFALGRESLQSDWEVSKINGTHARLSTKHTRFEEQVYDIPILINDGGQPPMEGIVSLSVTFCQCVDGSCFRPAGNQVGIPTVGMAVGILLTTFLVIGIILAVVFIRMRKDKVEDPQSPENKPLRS

- Kd [1]: < 1000 pM
- Antibody Binding Activity by Flow iQue [2]: 102000
- Antibody Binding Activity by Flow iQue [3]: 57600
- binding result [4]: no binding (tested: 1 µg)
- binding result [5]: binds
- binding result [6]: binds
- binding result [7]: binds
- Cross Reactivity by Flow [8]: 2420
- binding result [9]: no binding (tested: 1 µg)
- Cross Reactivity by Flow [10]: 57600
- Antibody Binding Activity by Flow iQue [11]: 172000
- EC50 (Peptide 7): 117 pM
- Kd [12]: 152 pM
- Antibody Binding Activity by Flow iQue [13]: 2.3e+06
- Antibody Binding Activity by Flow iQue [14]: 2.24e+06
B1: humanized anti-CDH17 antibody 07-0663-h7 (antibody, human IgG1, kappa, V domains shown)
VH: QVQLVQSGAEVKKPGSSVKISCKVSGYTFTDHTIHWMRQAPGQGLEWIGYIFPRDDIVVYAQKFQGRATLTADKSTSTAYMELSSLRSEDTAVYYCARPPYYYSRNFYFDYWGQGTTLTVSS
VL: DIQMTQSPSSLSASVGDRVTITCRVSSIISSSKLHWYQQKPGKAPKPLIYGTSTLASGVPSRFSGSGSGTDYTLTISSLQPEDFATYYCQQWSNYPFTFGQGTKLEIKR
notes: Human IgG1 / kappa

— patent US20250051437A1 (University of California, published 2025)
